{"source": "patent US4829052A", "about": "“Serine protease inhibitors” (Monsanto Company, priority 1987, dated 1989)", "key": {"Human Sputum Elastase": {"biological_target": "T1, Human Sputum Elastase (Homo sapiens, UniProt P08246)", "T1 construct": "Human Sputum Elastase, product No. SE-563 EPC, Inc., Pacific, Mo; USA, Lot 85701; purchased EPC, Inc., Pacific, Mo; USA SE-563; host or cells: human sputum", "T1 sequence (P08246 30-267)": "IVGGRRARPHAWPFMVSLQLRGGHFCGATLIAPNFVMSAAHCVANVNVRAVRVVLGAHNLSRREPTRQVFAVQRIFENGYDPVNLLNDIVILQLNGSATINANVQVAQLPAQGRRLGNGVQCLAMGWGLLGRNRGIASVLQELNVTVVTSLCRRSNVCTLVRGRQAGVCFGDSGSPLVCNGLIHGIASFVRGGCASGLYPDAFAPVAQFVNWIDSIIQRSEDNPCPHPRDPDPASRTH", "assay": "Elastase assay (spectrophotometric, p-nitroanilide substrate)", "assay_type": "biochemical", "description": "(§1) The inhibitory activity of the polypeptides of the present invention can be easily assayed using in vitro assays. In these types of spectrophotometric assays the activity of the serine protease is measured toward an appropriate p-nitroanilide substrate in the presence and absence of the peptide inhibitor. The enzyme catalyzed hydrolysis of the peptide p-nitroanilide substrate produces p-nitroanaline which results in an increase in absorbance which is monitored in the range of 405 to 410 nm. The rate of increase in absorbance is a measure of the enzymatic activity and the decrease in this rate relative to a suitable control is used to ascertain inhibition. The general assay procedure and details of the particular assays employed in the examples are provided in the Appendix following the examples. It is also possible to test the polypeptides in a functionally oriented assay that emulates in vivo conditions. Such an inhibition assay for elastase is also described in the Appendix.\n(§2) Generalized Protocol Spectrophotometric Assays:\n(§3) (1) Pipette 100 μl of enzyme solution into a disposable polystyrene cuvette (1 cm optical path length).\n(§4) (2) Add (1900-X) μl of bufferto the cuvette, where X is the volume of test solution in microliters that is added in the next step.\n(§5) Add X μl of test solution to the cuvette, where X ranges from 0 μl for the control to a maximum of about 500 μl. Incubate the solution for a period of 1 to 5 minutes at ambient temperature.\n(§6) (4) Add 100 μl of substrate solution to the cuvette. Mix the contents by covering the cuvette with a piece of paraffin film and repeatedly inverting for a period of 5 to 15 seconds.\n(§7) (5) Record the change in absorbance for about 5 minutes at either 405 or 410 nm, depending on the assay, with a spectrophotometer equipped with a suitable recording device.\n(§8) The percent inhibition is calculated from the formula [formula] where (ΔA/min) is the initial rate of absorbance change.\n(§9) (7) For more accurate quantitative determinations temperature control of the cuvette holders and the reagent solutions can be instituted.\n(§10) (8) The test solution can be crude oxidized peptide prepared as described above, fractions from a chromatographic separation or purified polypeptides.\n(A) Buffer Solution - Tris-NaCl buffer consisting of 0.1M Tris-HCl pH 7.5 at 25° C. containing 0.5M NaCl and 0.01% (w/v) NaNs.\n(B) Substrate Solution - Dissolve 45.5 mg of N-succinyl-L-alanyl-L-alanyl-L-alanine p-nitroanilide in 1 ml of 1-methyl-2-pyrrolidinone. Add 32 ml of Tris-NaCl buffer.\n(C) Enzyme Solution - Human Sputum Elastase, product No. SE-563 EPC, Inc., Pacific, Mo. USA, Lot 85701. Dissolve 1 mg in 1 ml of Tris-NaCl buffer. Store on ice or at 4° C.\n(§11) (D) Test Solution - See general protocol, number 8.\n(§12) Procedure: Use the above solutions in the general protocol described above.\n(1) Buffer Solution - Tris-NaCl buffer -see Method 1.\n(2) Substrate Solution - Dissolve 50 mg of 3-carbomethoxypropionyl-L-alanyl-L-alanyl-L-[…]-L-valine p-nitroanilidein 1 ml of 1-methyl-2-pyrrolidinone. Add 32 ml of Tris-NaCl buffer.\n(3) Enzyme Solution - Human sputum elastase, product No. SE-563, EPC, inc. Pacific, Mo. USA, Lot 85071. Prepare a sample at a concentration of 0.01 mg per ml of Tris-NaCl buffer. Store on ice.\n(4) Test Solution - general protocol, number 8.\nProcedure: Use the above solutions in the general protocol.\n(1) Porcine pancreatic elastase may be substituted for human elastase when it is desired to test for an inhibitor of the former.\n(2) The activity of an elastase preparation can be calculated as [formula]\n(3) The Tris-NaCl buffer also can be pH 8.0 with 0.03% sodium azide. Results should be compared at a single pH."}, "bovine trypsin": {"biological_target": "T2, bovine trypsin (Bos taurus, UniProt P00760)", "T2 sequence (P00760 24-246)": "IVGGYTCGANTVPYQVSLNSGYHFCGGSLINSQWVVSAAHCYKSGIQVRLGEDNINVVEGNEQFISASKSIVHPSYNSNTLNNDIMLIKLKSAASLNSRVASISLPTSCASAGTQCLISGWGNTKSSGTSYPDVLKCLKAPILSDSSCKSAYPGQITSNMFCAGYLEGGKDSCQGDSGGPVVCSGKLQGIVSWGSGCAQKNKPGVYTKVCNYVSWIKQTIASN", "assay": "Trypsin assay (spectrophotometric, N-Benzoyl-L-arginine p-nitroanilide substrate)", "assay_type": "biochemical", "settings": "inhibitor/protease ratio between about 10/1 and 50/1", "description": "as §1, §2, §3, §4, §5, §6, §7, §8, §9, §10\n(A) Buffer Solution - Triethanolamine buffer consisting of 200 mM triethanolamine, 20 mM CaCl2, pH 7.8\n(B) Substrate solution - Dissolve 50 mg of N-Benzoyl-L-arginine p-nitroanilide in 50 ml of water. Sonicate for 5 to 10 minutes to completely dissolve the solid material.\n(C) Enzyme solution - Dissolve 1 mg of bovine trypsin in 10 ml of 0.001N HCl stored on ice during the assay.\nas §11, §12"}, "[1]": {"biological_target": "T3, PMN-derived human elastase activity (Homo sapiens, UniProt P08246)", "T3 construct": "Some assays employed elastase activity derived from freshly prepared neutrophils (PMN); endogenous in cells; host or cells: freshly prepared, stimulated neutrophils (PMN)", "T3 sequence (P08246 30-267)": "T1 sequence (P08246 30-267)", "assay": "125I-Fibronectin assay with stimulated PMN as source of elastase activity", "assay_type": "cell-based", "settings": "HLE equivalent of 4 nM, FIG. 3", "experimental": "The data points represent the mean of several (n=3 to 9) replicates compared to the control that contained no inhibitor.\nThis assay is designed to model the degradation of connective tissue. The assay is carried out essentially as described by Campbell, et al. (J. Clin. Invest., 1982, 70:845-52). Briefly, purified human plasma fibronectin (fn) is radiolabeled with ^125 I using Enzymobeads and conventional procedures. The desalted is diluted with fn to yield ca. cpm/ug. This material is further diluted with pH 9.6 barbital buffer and 200 ul (30 ug fn, 50000 cpm) is pipetted into the wells of a flat bottomed 96 well microtiter plate. The plates are dried for about 24 hours at 37° C. and unbound fn is removed with 2 washes of phosphate buffered saline (PBS). The plates are stored at 4° C. and are stable for at least 2 weeks.\nFor an assay each coated well is filled with a total volume of 200 μl. All measurements are carried out at optimal pH and buffer conditions. After addition of proteolytic activity with or without inhibitor the plate is incubated at 37° C. for 3 hours. The well contents are centrifuged and a 100 μl aliquot is counted for 1251gamma radiation. Some assays employed elastase activity derived from freshly prepared neutrophils (PMN). ln this case an activating agent to stimulate the PMN is present in the well and the PMN is added last. […]"}, "[2]": {"biological_target": "T4, purified human elastase (HE) (Homo sapiens, UniProt P08246)", "T4 sequence (P08246 30-267)": "T1 sequence (P08246 30-267)", "assay": "125I-Fibronectin assay with purified human elastase", "assay_type": "biochemical", "settings": "enzyme concentration 4 nM, FIG. 3", "experimental": "This assay is designed to model the degradation of connective tissue. […] Briefly, purified human plasma fibronectin (fn) is radiolabeled with ^125 I using Enzymobeads and conventional procedures. The desalted is diluted with fn to yield ca. cpm/ug. This material is further diluted with pH 9.6 barbital buffer and 200 ul (30 ug fn, 50000 cpm) is pipetted into the wells of a flat bottomed 96 well microtiter plate. The plates are dried for about 24 hours at 37° C. and unbound fn is removed with 2 washes of phosphate buffered saline (PBS). The plates are stored at 4° C. and are stable for at least 2 weeks.\nFor an assay each coated well is filled with a total volume of 200 μl. All measurements are carried out at optimal pH and buffer conditions. After addition of proteolytic activity with or without inhibitor the plate is incubated at 37° C. for 3 hours. The well contents are centrifuged and a 100 μl aliquot is counted for 1251gamma radiation. Some assays employed elastase activity derived from freshly prepared neutrophils (PMN). ln this case an activating agent to stimulate the PMN is present in the well and the PMN is added last. A standard curve showing the linearity of the response to the amount of purified human elastase (HE) added is obtained concurrently with each assay."}}, "data": [{"substance": "RVCPVILMKCKKDSDCLAECVCLEHGYCG (RVCPVILMKCKKDSDCLAECVCLEHGYCG) [Peptide 8]", "values": [{"measurement": "titration curve for elastase inhibition", "setting": "Human Sputum Elastase; FIG. 2", "value": "essentially stochiometric inhibition"}, {"measurement": "Inhibitory Activity Elastase", "setting": "Human Sputum Elastase; inhibitor/protease ratio between about 10/1 and 50/1", "value": "++ (Represents greater than 50% inhibition)"}, {"measurement": "Inhibitory Activity Trypsin", "setting": "bovine trypsin", "value": "- (Represents less than 10% inhibition)"}, {"measurement": "inhibition of 125I fibronectin degradation", "setting": "[1]", "value": "nearly the same inhibitory profile against purified human elastase (HE) and PMN-derived HE activity"}, {"measurement": "inhibition of 125I fibronectin degradation", "setting": "[2]", "value": "nearly the same inhibitory profile against purified human elastase (HE) and PMN-derived HE activity"}]}]}
